In patent US20040204348A1:
Bridges are numbered along the chain shown (N, C = ends). L15 (R1 : phenyl) = linker L15: -CO-CH2-NH-CO-CH2-CH2-CH(CO-NH-CH2-CO-NH-R1)-NH- with R1 = phenyl (anilide)

Target: recombinant soluble uPAR (suPAR), Q03405
Assay: SPR (Biacore 3000), competition with scuPA
Conditions: remark: other sources report otherwise

recombinant soluble uPAR (suPAR), Q03405, sequence (Q03405 23-299 limits assumed): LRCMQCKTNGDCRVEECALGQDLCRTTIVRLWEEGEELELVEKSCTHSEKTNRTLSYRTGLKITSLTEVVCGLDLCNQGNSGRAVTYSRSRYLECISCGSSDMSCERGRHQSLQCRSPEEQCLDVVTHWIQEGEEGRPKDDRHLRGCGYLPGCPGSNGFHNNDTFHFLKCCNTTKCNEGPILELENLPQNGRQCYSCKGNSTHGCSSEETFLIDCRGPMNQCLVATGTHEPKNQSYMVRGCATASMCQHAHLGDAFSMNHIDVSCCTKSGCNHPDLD

Kd: 4 nM
B1: Å36 (peptide)
peptide: VSNKYFSNIHW
modifications: linker N-C via L15 (R1 : phenyl); also: cyclised by linker L15 between X1 N and X11 carbonyl
